{
  "source": "paper PMC2765525",
  "target": "KIX domain (residues 568-672) of mouse CBP (mouse) (UniProt P45481)",
  "sequence (P45481 568-672)": "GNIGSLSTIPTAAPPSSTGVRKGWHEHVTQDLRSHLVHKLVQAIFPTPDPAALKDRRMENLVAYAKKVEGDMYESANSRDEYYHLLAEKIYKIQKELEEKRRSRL",
  "test": "NMR titration",
  "data": [
    {"substance": "p53(14-28) (from UniProt P04637 14-28) (peptide)", "values": [
      {"measurement": "Kd", "value": 214, "unit": "µM"}
    ]}
  ]
}
